{"source": "paper PMC4072051", "target": "Recombinant TssK (SMA2253), purified from S. marcescens, His6 tag removed (Serratia marcescens Db10)", "assay": "AUC; sedimentation velocity, 4°C, 49000 rev./min, 50 mM Tris/HCl pH 7.5, 250 mM NaCl; Peak 1 at 0.2 to 0.7 mg/ml, Peak 2 at 0.2 and 0.5 mg/ml; c(s) analysis in SEDFIT", "note": "Values joined by “and” are separate entries in the source; they are usually repeats but may differ in a detail not shown here. Identical values can stand only once."}
{"substance": "Recombinant TssK (SMA2253), purified from S. marcescens, His6 tag removed (natural protein)", "values": [{"measurement": "stoichiometry N", "result": "3 and 6"}]}
